{
  "source": "paper PMC9126950",
  "about": "“SARS-CoV-2 detection using a nanobody-functionalized voltammetric device” (Communications Medicine, 2022)",
  "key": {"[1]": {"target": "T1, SARS-CoV-2 spike receptor binding domain (RBD), recombinant (SARS-CoV-2, UniProt P0DTC2 319-541)", "T1 construct": "also called SARS-CoV-2 RBD; Spike RBD", "assay": "SPR", "conditions": "both partners purified"}, "[2]": {"target": "T2, SARS-CoV-2 spike receptor binding domain (RBD), recombinant (SARS-CoV-2, UniProt P0DTC2)", "T2 construct": "also called SARS-CoV-2 RBD; Spike RBD", "assay": "electrochemical titration (differential pulse voltammetry)", "conditions": "both partners purified"}},
  "data": [
    {"binder": "VHH-72-C13 (VHH, also called VHH-72-13C; VHH-C13) VHH: QVQLQESGGGLVCAGGSLRLSCAASGRTFSEYAMGWFRQAPGKEREFVATISWSGGSTYYTDSVKGRFTISRDNAKNTVYLQMNSLKPDDTAVYYCAAAGLGTVVSEWDYDYDYWGQGTQVTVSS", "values": [
      {"measurement": "Kd", "setting": "[1]", "value": 12.1, "unit": "nM"}
    ]},
    {"binder": "VHH-72 (VHH) VHH: QVQLQESGGGLVQAGGSLRLSCAASGRTFSEYAMGWFRQAPGKEREFVATISWSGGSTYYTDSVKGRFTISRDNAKNTVYLQMNSLKPDDTAVYYCAAAGLGTVVSEWDYDYDYWGQGTQVTVSS", "values": [
      {"measurement": "Kd", "setting": "[2]", "value": 78, "unit": "nM"}
    ]}
  ]
}
